Measured values reported in patent US20140274782A1, “AFFINITY REAGENTS AND METHODS FOR DETECTION, PURIFICATION, AND PROTEOMIC ANALYSIS OF METHYLATED PROTEINS” (The Board of Trustees of the Leland Stanford Junior …, priority 2013, published 2014).

T1: G9a and GLP (Homo sapiens, UniProt Q96KQ7+Q9H9B1)
T1 sequence (Q96KQ7 2-1210 limits assumed): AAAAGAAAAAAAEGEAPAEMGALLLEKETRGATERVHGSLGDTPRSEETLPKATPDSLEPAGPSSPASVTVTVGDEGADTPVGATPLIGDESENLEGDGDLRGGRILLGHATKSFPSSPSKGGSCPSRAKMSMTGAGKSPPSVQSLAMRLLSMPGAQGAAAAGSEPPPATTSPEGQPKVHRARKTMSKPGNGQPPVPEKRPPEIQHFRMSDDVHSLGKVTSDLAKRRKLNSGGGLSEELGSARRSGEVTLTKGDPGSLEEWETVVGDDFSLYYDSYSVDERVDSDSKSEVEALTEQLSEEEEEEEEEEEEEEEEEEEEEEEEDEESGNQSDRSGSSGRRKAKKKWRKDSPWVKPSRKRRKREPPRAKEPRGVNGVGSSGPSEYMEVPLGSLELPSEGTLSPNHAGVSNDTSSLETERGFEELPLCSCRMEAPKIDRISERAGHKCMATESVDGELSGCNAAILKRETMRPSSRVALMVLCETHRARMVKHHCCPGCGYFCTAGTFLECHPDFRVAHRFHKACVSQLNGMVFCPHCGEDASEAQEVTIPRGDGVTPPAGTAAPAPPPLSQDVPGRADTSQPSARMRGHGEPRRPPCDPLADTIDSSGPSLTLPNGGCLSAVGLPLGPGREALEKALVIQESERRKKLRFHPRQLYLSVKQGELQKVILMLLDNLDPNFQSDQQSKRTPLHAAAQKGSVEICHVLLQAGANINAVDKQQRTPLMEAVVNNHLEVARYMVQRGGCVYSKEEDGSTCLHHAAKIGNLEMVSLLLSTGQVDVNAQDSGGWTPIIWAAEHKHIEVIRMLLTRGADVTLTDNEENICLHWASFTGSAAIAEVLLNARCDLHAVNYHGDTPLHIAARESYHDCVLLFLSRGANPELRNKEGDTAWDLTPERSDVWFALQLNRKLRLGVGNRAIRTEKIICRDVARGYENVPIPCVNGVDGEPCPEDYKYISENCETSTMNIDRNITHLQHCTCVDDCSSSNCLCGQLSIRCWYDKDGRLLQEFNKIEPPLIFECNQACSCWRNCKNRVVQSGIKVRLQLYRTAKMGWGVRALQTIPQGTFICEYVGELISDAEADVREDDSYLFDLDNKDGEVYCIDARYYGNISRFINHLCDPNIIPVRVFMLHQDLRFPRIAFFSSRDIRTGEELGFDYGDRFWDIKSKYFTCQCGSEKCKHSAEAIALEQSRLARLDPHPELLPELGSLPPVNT
T1 sequence (Q9H9B1 2-1298 limits assumed): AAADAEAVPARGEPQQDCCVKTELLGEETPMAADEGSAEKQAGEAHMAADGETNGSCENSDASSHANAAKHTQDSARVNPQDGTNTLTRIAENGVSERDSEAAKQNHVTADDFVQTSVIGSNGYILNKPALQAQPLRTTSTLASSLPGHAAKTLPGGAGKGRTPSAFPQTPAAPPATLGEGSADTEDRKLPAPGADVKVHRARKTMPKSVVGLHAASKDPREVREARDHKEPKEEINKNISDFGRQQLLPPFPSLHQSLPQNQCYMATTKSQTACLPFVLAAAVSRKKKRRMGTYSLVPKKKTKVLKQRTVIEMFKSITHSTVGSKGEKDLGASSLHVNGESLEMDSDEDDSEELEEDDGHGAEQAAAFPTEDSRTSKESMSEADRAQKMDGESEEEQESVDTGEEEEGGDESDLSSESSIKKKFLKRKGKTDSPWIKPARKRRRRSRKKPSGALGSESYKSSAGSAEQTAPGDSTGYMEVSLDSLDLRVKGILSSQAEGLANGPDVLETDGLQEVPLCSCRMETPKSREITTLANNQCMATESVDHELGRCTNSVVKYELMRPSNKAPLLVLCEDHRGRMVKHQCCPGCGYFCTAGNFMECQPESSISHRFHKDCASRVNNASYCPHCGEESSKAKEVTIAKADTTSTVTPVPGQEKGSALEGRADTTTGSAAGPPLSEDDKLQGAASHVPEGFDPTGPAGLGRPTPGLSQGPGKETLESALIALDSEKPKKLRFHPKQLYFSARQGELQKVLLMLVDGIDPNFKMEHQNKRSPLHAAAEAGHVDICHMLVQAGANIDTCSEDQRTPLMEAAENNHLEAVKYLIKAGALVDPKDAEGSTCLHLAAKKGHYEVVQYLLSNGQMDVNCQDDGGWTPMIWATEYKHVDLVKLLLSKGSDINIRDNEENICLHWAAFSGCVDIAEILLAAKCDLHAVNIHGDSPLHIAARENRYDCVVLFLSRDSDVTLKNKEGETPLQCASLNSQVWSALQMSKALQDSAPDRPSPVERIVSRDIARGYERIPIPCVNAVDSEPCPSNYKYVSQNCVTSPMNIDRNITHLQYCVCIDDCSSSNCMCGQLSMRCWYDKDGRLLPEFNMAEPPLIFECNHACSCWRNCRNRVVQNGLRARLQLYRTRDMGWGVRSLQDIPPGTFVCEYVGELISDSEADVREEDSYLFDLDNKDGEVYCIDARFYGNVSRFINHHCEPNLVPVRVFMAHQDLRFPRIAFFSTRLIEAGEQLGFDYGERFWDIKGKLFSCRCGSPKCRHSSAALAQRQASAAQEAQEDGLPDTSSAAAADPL

B1: PRDX1 (protein, UniProt Q06830 2-199, looked up)
Peroxiredoxin-1: SSGNAKIGHPAPNFKATAVMPDGQFKDISLSDYKGKYVVFFFYPLDFTFVCPTEIIAFSDRAEEFKKLNCQVIGASVDSHFCHLAWVNTPKKQGGLGPMNIPLVSDPKRTIAQDYGVLKADEGISFRGLFIIDDKGILRQITVNDLPVGRSVDETLRLVQAFQFTDKHGEVCPAGWKPGSDTIKPDVQKSKEYFSKQK
B2: DEK (protein, UniProt P35659 2-375, looked up)
Protein DEK: SASAPAAEGEGTPTQPASEKEPEMPGPREESEEEEDEDDEEEEEEEKEKSLIVEGKREKKKVERLTMQVSSLQREPFTIAQGKGQKLCEIERIHFFLSKKKTDELRNLHKLLYNRPGTVSSLKKNVGQFSGFPFEKGSVQYKKKEEMLKKFRNAMLKSICEVLDLERSGVNSELVKRILNFLMHPKPSGKPLPKSKKTCSKGSKKERNSSGMARKAKRTKCPEILSDESSSDEDEKKNKEESSDDEDKESEEEPPKKTAKREKPKQKATSKSKKSVKSANVKKADSSTTKKNQNSSKKESESEDSSDDEPLIKKLKKPPTDEELKETIKKLLASANLEEVTMKQICKKVYENYPTYDLTERKDFIKTTVKELIS
B3: GSR (protein, UniProt P00390 44-522, looked up)
Glutathione reductase, …: MACRQEPQPQGPPPAAGAVASYDYLVIGGGSGGLASARRAAELGARAAVVESHKLGGTCVNVGCVPKKVMWNTAVHSEFMHDHADYGFPSCEGKFNWRVIKEKRDAYVSRLNAIYQNNLTKSHIEIIRGHAAFTSDPKPTIEVSGKKYTAPHILIATGGMPSTPHESQIPGASLGITSDGFFQLEELPGRSVIVGAGYIAVEMAGILSALGSKTSLMIRHDKVLRSFDSMISTNCTEELENAGVEVLKFSQVKEVKKTLSGLEVSMVTAVPGRLPVMTMIPDVDCLLWAIGRVPNTKDLSLNKLGIQTDDKGHIIVDEFQNTNVKGIYAVGDVCGKALLTPVAIAAGRKLAHRLFEYKEDSKLDYNNIPTVVFSHPPIGTVGLTEDEAIHKYGIENVKTYSTSFTPMYHAVTKRKTKCVMKMVCANKEEKVVGIHMQGLGCDEMLQGFAVAVKMGATKADFDNTVAIHPTSSEELVTLR
B4: HPRT1 (protein, UniProt P00492 2-218, looked up)
Hypoxanthine-guanine …: ATRSPGVVISDDEPGYDLDLFCIPNHYAEDLERVFIPHGLIMDRTERLARDVMKEMGGHHIVALCVLKGGYKFFADLLDYIKALNRNSDRSIPMTVDFIRLKSYCNDQSTGDIKVIGGDDLSTLTGKNVLIVEDIIDTGKTMQTLLSLVRQYNPKMVKVASLLVKRTPRSVGYKPDFVGFEIPDKFVVGYALDYNEYFRDLNHVCVISETGKAKYKA
B5: HNRNPM (protein, UniProt P52272 2-730, looked up)
Heterogeneous nuclear …: AAGVEAAAEVAATEIKMEEESGAPGVPSGNGAPGPKGEGERPAQNEKRKEKNIKRGGNRFEPYANPTKRYRAFITNIPFDVKWQSLKDLVKEKVGEVTYVELLMDAEGKSRGCAVVEFKMEESMKKAAEVLNKHSLSGRPLKVKEDPDGEHARRAMQKVMATTGGMGMGPGGPGMITIPPSILNNPNIPNEIIHALQAGRLGSTVFVANLDYKVGWKKLKEVFSMAGVVVRADILEDKDGKSRGIGTVTFEQSIEAVQAISMFNGQLLFDRPMHVKMDERALPKGDFFPPERPQQLPHGLGGIGMGLGPGGQPIDANHLNKGIGMGNIGPAGMGMEGIGFGINKMGGMEGPFGGGMENMGRFGSGMNMGRINEILSNALKRGEIIAKQGGGGGGGSVPGIERMGPGIDRLGGAGMERMGAGLGHGMDRVGSEIERMGLVMDRMGSVERMGSGIERMGPLGLDHMASSIERMGQTMERIGSGVERMGAGMGFGLERMAAPIDRVGQTIERMGSGVERMGPAIERMGLSMERMVPAGMGAGLERMGPVMDRMATGLERMGANNLERMGLERMGANSLERMGLERMGANSLERMGPAMGPALGAGIERMGLAMGGGGGASFDRAIEMERGNFGGSFAGSFGGAGGHAPGVARKACQIFVRNLPFDFTWKMLKDKFNECGHVLYADIKMENGKSKGCGVVKFESPEVAERACRMMNGMKLSGREIDVRIDRNA

What was measured:
3×MBT domain of L3MBTL1 = assay: Triple SILAC pull-down, 3xMBT/3xMBTD355N ratio (cytoplasmic, nuclear and chromatin fractions of 293T cells); type: binding, human; conditions: for 3xMBT/D355N UNC Heavy: experiment with UNC0638 in heavy SILAC media; for 3xMBT/D355N UNC Light: experiment with UNC0638 in light SILAC media;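 as to all read-outs here: proteins quantified with MaxQuant, requiring at least two unique peptides and quantification in both label directions, normalized to the mean of proteins from a digested loading control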
G9a and GLP = molecular target: T1, G9a and GLP; assay: Triple SILAC pull-down after UNC0638 treatment of 293T cells, DMSO/UNC0638 ratio of protein captured by 3×MBT; type: cell-based; parameters: endogenous in cells; host or cells: HEK 293T; conditions: for Relative to UNC0638 UNC Heavy: UNC0638 in heavy SILAC media; for Relative to UNC0638 UNC Light: UNC0638 in light SILAC media; for Relative to UNC0638 Average: average of UNC Light and UNC Heavy experiments;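 as to all read-outs here: mass spectrometry (Q-Exactive) SILAC quantitation, DMSO/UNC0638 ratio computed after subtracting 3×MBTD355N mutant pull-down background, only proteins with at least twofold 3×MBT over mutant signal considered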
[1] = SILAC ratio 3xMBT vs 3xMBTD355N pull-down, 293T cells, all values in log base 2
[2] = SILAC ratio DMSO relative to UNC0638, pull-down with 3xMBT, all values in log base 2
[3] = SILAC ratio, pull-down 3xMBT vs 3xMBTD355N
[4] = SILAC ratio DMSO/UNC0638 of protein pulled down with 3xMBT

Molecule	3xMBT/D355N UNC Heavy (3×MBT domain of L3MBTL1; [1]) [log base 2]	3xMBT/D355N UNC Light (3×MBT domain of L3MBTL1; [1]) [log base 2]	Relative to UNC0638 UNC Heavy (G9a and GLP; [2]) [log base 2]	Relative to UNC0638 UNC Light (G9a and GLP; [2]) [log base 2]	Relative to UNC0638 Average (G9a and GLP; all values in log base 2) [log base 2]	3xMBT/D355N UNC Heavy (3×MBT domain of L3MBTL1; [3]) [log base 2]	3xMBT/D355N UNC Light (3×MBT domain of L3MBTL1; [3]) [log base 2]	Relative to UNC0638 UNC Heavy (G9a and GLP; [4]) [log base 2]	Relative to UNC0638 UNC Light (G9a and GLP; [4]) [log base 2]	Relative to UNC0638 Average (G9a and GLP) [log base 2]
B1	1.65	1.98	0.17	0.04	0.10	–	–	–	–	–
B2	2.38	2.01	0.10	0.10	0.10	–	–	–	–	–
B3	–	–	–	–	–	2.92	2.32	0.24	−0.02	0.11
B4	2.51	1.19	0.28	−0.08	0.10	–	–	–	–	–
B5	3.18	2.44	0.01	0.19	0.10	–	–	–	–	–
